In patent US20220211812A1 (Bristol-Myers Squibb, published 2022):

The binders below were run against T1, human RXFP1 receptor (human, UniProt Q9HBX9 1-757) (assay: cell-based or functional assay).
T1 sequence (looked up): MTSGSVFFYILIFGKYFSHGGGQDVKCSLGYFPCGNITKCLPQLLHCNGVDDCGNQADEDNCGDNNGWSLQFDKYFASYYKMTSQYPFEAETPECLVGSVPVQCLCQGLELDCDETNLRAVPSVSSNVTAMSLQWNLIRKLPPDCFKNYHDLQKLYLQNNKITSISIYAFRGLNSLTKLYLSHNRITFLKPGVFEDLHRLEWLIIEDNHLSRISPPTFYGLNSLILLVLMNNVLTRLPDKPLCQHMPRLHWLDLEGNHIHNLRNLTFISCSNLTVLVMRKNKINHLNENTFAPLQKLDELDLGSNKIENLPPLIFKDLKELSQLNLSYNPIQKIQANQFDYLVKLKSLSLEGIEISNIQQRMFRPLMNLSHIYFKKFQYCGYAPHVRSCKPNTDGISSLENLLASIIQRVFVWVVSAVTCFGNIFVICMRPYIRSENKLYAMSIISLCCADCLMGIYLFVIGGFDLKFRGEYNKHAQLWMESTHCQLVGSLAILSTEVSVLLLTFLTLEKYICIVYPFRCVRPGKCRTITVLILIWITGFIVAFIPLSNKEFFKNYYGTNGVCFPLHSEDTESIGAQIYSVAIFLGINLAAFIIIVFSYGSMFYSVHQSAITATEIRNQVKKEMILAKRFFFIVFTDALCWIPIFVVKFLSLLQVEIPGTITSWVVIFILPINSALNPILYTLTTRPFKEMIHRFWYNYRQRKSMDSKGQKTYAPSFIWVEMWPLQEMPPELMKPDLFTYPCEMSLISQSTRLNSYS

Binder	hRXFP1/CHO-K1 cAMP EC50 (nM, avg)
AQ1-Glu-C13-CH3 (ligand, not fully specified; pAcF (para-acetyl-L-phenylalanine) at position 1, oxime-linked to PK enhancer Glu-C13-CH3) chain 1: XLYSALANKCCHVGCTKRSLARFC chain 2: ASWMEEVIKLCGRELVRAQIAICGMSTWS	0.95 nM
AQ1-KGGEEKKKEKEKEPKGGEEKKKEKEK-Glu^γ-C15-COOH (ligand, not fully specified; Glu^γ bonded by amide to fatty acid -C15-COOH; oxime-linked to pAcF of the A chain; pAcF (para-acetyl-L-phenylalanine) at position 1, oxime-linked to PK enhancer KGGEEKKKEKEKEPKGGEEKKKEKEK-Glu^γ-C15-COOH) chain 1: XLYSALANKCCHVGCTKRSLARFC chain 2: ASWMEEVIKLCGRELVRAQIAICGMSTWS peptide: KGGEEKKKEKEKEPKGGEEKKKEKEKE	1.81 nM
AQ1-GGGGS-Glu^γ (SEQ ID NO: 139)-C14-COOH (ligand, not fully specified; Glu^γ bonded by amide to fatty acid -C14-COOH (-(C=O)-(CH2)13-COOH); oxime-linked to pAcF of the A chain; modified para-acetyl-L-phenylalanine at the N-terminus (position 1), oxime-linked to PK enhancer GGGGS-Glu^γ-C14-COOH (Formula III)) chain 1: XLYSALANKCCHVGCTKRSLARFC chain 2: ASWMEEVIKLCGRELVRAQIAICGMSTWS peptide: GGGGSE	0.28 nM
AQ1-KK-Glu^γ-C14-CH3 (ligand, not fully specified; Glu^γ bonded by amide to fatty acid -C14-CH3; oxime-linked to pAcF of the A chain; pAcF (para-acetyl-L-phenylalanine) at position 1, oxime-linked to PK enhancer KK-Glu^γ-C14-CH3) chain 1: XLYSALANKCCHVGCTKRSLARFC chain 2: ASWMEEVIKLCGRELVRAQIAICGMSTWS peptide: KKE	0.35 nM
AQ1-KK-Glu^γ-C15-COOH (ligand, not fully specified; Glu^γ bonded by amide to fatty acid -C15-COOH; oxime-linked to pAcF of the A chain; pAcF (para-acetyl-L-phenylalanine) at position 1, oxime-linked to PK enhancer …) chain 1: XLYSALANKCCHVGCTKRSLARFC chain 2: ASWMEEVIKLCGRELVRAQIAICGMSTWS peptide: KKE	0.4 nM
AQ1-EGGS-Glu^γ-C14-COOH (ligand, not fully specified; Glu^γ bonded by amide to fatty acid -C14-COOH; oxime-linked to pAcF of the A chain; pAcF (para-acetyl-L-phenylalanine) at position 1, oxime-linked to PK enhancer EGGS-Glu^γ-C14-COOH) chain 1: XLYSALANKCCHVGCTKRSLARFC chain 2: ASWMEEVIKLCGRELVRAQIAICGMSTWS peptide: EGGSE	0.33 nM
AQ1-KGPGSE-Glu^γ-C14-COOH (ligand, not fully specified; Glu^γ bonded by amide to fatty acid -C14-COOH; oxime-linked to pAcF of the A chain; pAcF (para-acetyl-L-phenylalanine) at position 1, oxime-linked to PK enhancer KGPGSE-Glu^γ-C14-COOH) chain 1: XLYSALANKCCHVGCTKRSLARFC chain 2: ASWMEEVIKLCGRELVRAQIAICGMSTWS peptide: KGPGSEE	0.6 nM
AQ1-Compound 39 (ligand, pAcF (para-acetyl-L-phenylalanine) at position 1, oxime-linked to Compound 39 ((S)-1-(aminooxy)-33-carboxy-4,7,17,27,35-pentaoxo-11,14,21,24-tetraoxa-3,8,18,28,34-pentaazadopentacontan-52-oic acid)) chain 1: XLYSALANKCCHVGCTKRSLARFC chain 2: ASWMEEVIKLCGRELVRAQIAICGMSTWS	2.23 nM
AQ1-KK-Glu^γ-C13-COOH (ligand, not fully specified; Glu^γ bonded by amide to fatty acid -C13-COOH; oxime-linked to pAcF of the A chain; pAcF (para-acetyl-L-phenylalanine) at position 1, oxime-linked to PK enhancer …) chain 1: XLYSALANKCCHVGCTKRSLARFC chain 2: ASWMEEVIKLCGRELVRAQIAICGMSTWS peptide: KKE	0.1 nM
AQ1-GGGGP-Glu^γ-C14-COOH (ligand, not fully specified; Glu^γ bonded by amide to fatty acid -C14-COOH; oxime-linked to pAcF of the A chain; pAcF (para-acetyl-L-phenylalanine) at position 1, oxime-linked to PK enhancer GGGGP-Glu^γ-C14-COOH) chain 1: XLYSALANKCCHVGCTKRSLARFC chain 2: ASWMEEVIKLCGRELVRAQIAICGMSTWS peptide: GGGGPE	0.39 nM
AQ1-KK-Glu^γ-C14-COOH (ligand, not fully specified; Glu^γ bonded by amide to fatty acid -C14-COOH; oxime-linked to pAcF of the A chain; pAcF (para-acetyl-L-phenylalanine) at position 1, oxime-linked to PK enhancer …) chain 1: XLYSALANKCCHVGCTKRSLARFC chain 2: ASWMEEVIKLCGRELVRAQIAICGMSTWS peptide: KKE	0.34 nM
RLX-AQ1 (ligand, pAcF (para-acetyl-L-phenylalanine) at position 1) chain 1: XLYSALANKCCHVGCTKRSLARFC chain 2: ASWMEEVIKLCGRELVRAQIAICGMSTWS	0.11 nM
AQ1-EAQKAQAEAQKAQAEAQKAQA-Glu^γ-C15-COOH (ligand, not fully specified; Glu^γ bonded by amide to fatty acid -C15-COOH; oxime-linked to pAcF of the A chain; pAcF (para-acetyl-L-phenylalanine) at position 1, oxime-linked to PK enhancer EAQKAQAEAQKAQAEAQKAQA-Glu^γ-C15-COOH) chain 1: XLYSALANKCCHVGCTKRSLARFC chain 2: ASWMEEVIKLCGRELVRAQIAICGMSTWS peptide: EAQKAQAEAQKAQAEAQKAQAE	4.96 nM
AQ1-20kDa PEG (ligand, pAcF (para-acetyl-L-phenylalanine) at position 1, oxime-linked to 20 kDa PEG) chain 1: XLYSALANKCCHVGCTKRSLARFC chain 2: ASWMEEVIKLCGRELVRAQIAICGMSTWS	3.22 nM
AQ1-KGP-Glu^γ-C14-COOH (ligand, not fully specified; Glu^γ bonded by amide to fatty acid -C14-COOH; oxime-linked to pAcF of the A chain; pAcF (para-acetyl-L-phenylalanine) at position 1, oxime-linked to PK enhancer KGP-Glu^γ-C14-COOH) chain 1: XLYSALANKCCHVGCTKRSLARFC chain 2: ASWMEEVIKLCGRELVRAQIAICGMSTWS peptide: KGPE	0.27 nM
AQ1-EEEGGG-dGlu^γ-C13-COOH (ligand, not fully specified; dGlu^γ = D-glutamic acid (gamma), linked to fatty acid -C13-COOH; oxime-linked to pAcF of the A chain; pAcF (para-acetyl-L-phenylalanine) at position 1, oxime-linked to PK enhancer EEEGGG-dGlu^γ-C13-COOH) chain 1: XLYSALANKCCHVGCTKRSLARFC chain 2: ASWMEEVIKLCGRELVRAQIAICGMSTWS peptide: EEEGGGE	1.91 nM
